Measured values reported in US20190111164A1 (Boehringer Ingelheim, published 2019).
Where a chain is given by its changes, count along the chain named. * marks the point of attachment. αGalNAc = CC(=O)N[C@@H]1[C@@H](O)[C@@H](O)[C@@H](CO)O[C@@H]1*

T1: A-MUC2 (SMILES …)
T1 construct: also called Ac-PT*TTPLK-NH2
T1 peptide: Ac-PT(αGalNAc)TTPLK-NH2

T2: B-MUC2 (SMILES …)
T2 construct: also called Ac-PTT*TPLK-NH2
T2 peptide: Ac-PTT(αGalNAc)TPLK-NH2

T3: C-MUC2 (SMILES …)
T3 construct: also called Ac-PTTT*PLK-NH2
T3 peptide: Ac-PTTT(αGalNAc)PLK-NH2

T4: D-MUC2 (SMILES …)
T4 construct: also called Ac-PT*T*TPLK-NH2
T4 peptide: Ac-PT(αGalNAc)T(αGalNAc)TPLK-NH2

T5: E-MUC2 (SMILES …)
T5 construct: also called Ac-PT*TT*PLK-NH2
T5 peptide: Ac-PT(αGalNAc)TT(αGalNAc)PLK-NH2

T6: F-MUC2 (SMILES …)
T6 construct: also called Ac-PTT*T*PLK-NH2
T6 peptide: Ac-PTT(αGalNAc)T(αGalNAc)PLK-NH2

T7: G-MUC2 (SMILES …)
T7 construct: also called Ac-PT*T*T*PLK-NH2
T7 peptide: Ac-PT(αGalNAc)T(αGalNAc)T(αGalNAc)PLK-NH2

T8: a-Dystroglycan peptide (no Tn)
T8 construct: Unmodified control of the a-Dystroglycan glycopeptide
T8 peptide: Ac-PPTTTTKKP-NH2

T9: MUC5AC (SMILES …)
T9 peptide: H-GTTPSPVPT(αGalNAc)TSTTSAP-OH

T10: EA2 (SMILES …)
T10 construct: also called Ac-PTTDSTT*PAPTTK-NH2
T10 peptide: Ac-PTTDSTT(αGalNAc)PAPTTK-NH2

T11: EA2-R
T11 peptide: Ac-PTTDSTTPAPTTK-NH2

T12: a-Dystroglycan glycopeptide (four Tn) (SMILES …)
T12 construct: also called Ac-PPT*T*T*T*KKP-HN2
T12 peptide: Ac-PPT(αGalNAc)T(αGalNAc)T(αGalNAc)T(αGalNAc)KKP-NH2

T13: MUC1-1 (SMILES …)
T13 construct: also called H2N-TSAPDT*RDAP-NH2
T13 peptide: H-TSAPDT(αGalNAc)RDAP-NH2

T14: MUC1-1R
T14 peptide: H-TSAPDTRDAP-NH2

T15: MUC1-2 (SMILES …)
T15 construct: also called H2N-APGS*T*APP-NH2
T15 peptide: H-APGS(αGalNAc)T(αGalNAc)APP-NH2

T16: MUC1-2R
T16 peptide: H-APGSTAPP-NH2

T17: Peptide-4
T17 construct: also called H2N-KTTT-CONH2
T17 peptide: H-KTTT-NH2

T18: Peptide-5
T18 construct: also called H2N-KTTTG-CONH2
T18 peptide: H-KTTTG-NH2

T19: IgA-Pep02
T19 peptide: H-KPVPSTPPTPSC-OH

T20: IgA-Pep03 (SMILES …)
T20 construct: also called H2N-KPVPS*TPPTPSC-OH
T20 peptide: H-KPVPS(αGalNAc)TPPTPSC-OH

T21: IgA-Pep07
T21 peptide: H-KTPPTPSPSTPC-OH

T22: IgA-Pep08 (SMILES …)
T22 peptide: H-KTPPTPSPST(αGalNAc)PC-OH

T23: IgA-Pep10
T23 peptide: H-KPSPSTPPTPSC-OH

T24: IgA-Pep13 (SMILES …)
T24 construct: also called H2N-KPS*TPPT*PSPSC-OH
T24 peptide: H-KPS(αGalNAc)TPPT(αGalNAc)PSPSC-OH

T25: IgA-Pep16 (SMILES …)
T25 peptide: H-KPSTPPTPS(αGalNAc)PSC-OH

T26: IgA-Pep18 (SMILES …)
T26 peptide: H-KPST(αGalNAc)PPTPSPSC-OH

T27: IgA-Pep05
T27 construct: also called IgA-Pep12; IgA-Pep14
T27 peptide: H-KPSTPPTPSPSC-OH

B1: 2F3 parent antibody (antibody, V domains shown)
VH: QITLRESGGGLVQPGGSLRLSCAASGFTFDSYAMSWVRQAPGKGLEWVSAISGSGDSTYYADSVKGRFSISRDNSKNTLYLQMNSLRAEDTAVYYCAIRREYSGYAPFDYWGQGTLVTVSS
VL: DIVMTQTPSSLSASVGDRVTITCRASQGISSWLAWYQQKPEKAPRSLIYAASSLQSGVPSRFSGSGSGTDFTLTISSLQPEDFATYYCQQYISYPYTFGQGTKLEIK
notes: Only variable domains are used here; V genes were cloned into human IgG1 (or IgG3)/kappa; also called 2F3 Original; original 2F3 parent
B2: 2F3 variant #17v2 (antibody, IgG1, V domains shown)
VH: B1 VH with D56H, S85N
VL: B1 VL
notes: IgG1, kappa, wild type 2F3 light chain; also called 2F3#17V2; 2F3#17v2
B3: 2F3 variant #6 (antibody, IgG1, V domains shown)
VH: B1 VH with I2V, T3Q, R5L, D56A, T118I
VL: B1 VL
notes: Mutant heavy chain in an IgG expression vector, co-expressed with the wild type 2F3 light chain (IgG1, kappa); also called 2F3#6; clone 6

Experiments:
[1] = molecular target: T1, A-MUC2; assay: glycopeptide microarray, antibody at 50 ug/mL
Experimental: (§1) With concentrations adjusted to 100 μM in printing buffer (300 mM sodium phosphates, pH 8.5), 0.33 nL of each solution was spotted using a piezoelectric printer. The microarray was printed in spot replicates of 6. Arrays were interrogated with monoclonal anti-Tn antibodies 2F3 parent, 2F3V variant 6, or 2F3 variant 17-2 and detected with fluorescently labeled secondary antibodies and streptavidin as noted. Scanning and quantification were performed with ProScanArray scanner and ScanArray Express software (Perkin-Elmer). The assay examined a panel of ˜50 Tn glycopeptides and addressed whether spacing, number of Tn modifications, specific residues modified, or sequence context contributed to the specificity of binding by 2F3. […] Ser-Tn near free termini and multiple Ser-Tn in a single peptide increased binding. Using the 2F3 parent antibody (“parent”), Variant 6 and Variant 17, the binding of the antibodies to a panel of different glycoproteins was assayed to determine the preferred Tn context recognized by 2F3 and the 2F3G1 variants. […] Importantly, modification to Thr residues gave rise to little to no binding. […] Furthermore, binding was observed not only to peptides that contained Ser-Tn, but specifically those that were at least 5 amino acids from the attachment point to the solid matrix. Ser-Tn near free termini and multiple Ser-Tn in a single peptide increased binding.
(§2) The antibodies were applied to glycopeptide arrays at a concentration of 5 ug/mL (no data shown form this group) or 50 ug/mL (data shown in bar chart and in the table 9).

[2] = molecular target: T2, B-MUC2; assay: glycopeptide microarray, antibody at 50 ug/mL
Experimental: as §1, §2

[3] = molecular target: T3, C-MUC2; assay: glycopeptide microarray, antibody at 50 ug/mL
Experimental: as §1, §2

[4] = molecular target: T4, D-MUC2; assay: glycopeptide microarray, antibody at 50 ug/mL
Experimental: as §1, §2

[5] = molecular target: T5, E-MUC2; assay: glycopeptide microarray, antibody at 50 ug/mL
Experimental: as §1, §2

[6] = molecular target: T6, F-MUC2; assay: glycopeptide microarray, antibody at 50 ug/mL
Experimental: as §1, §2

[7] = molecular target: T7, G-MUC2; assay: glycopeptide microarray, antibody at 50 ug/mL
Experimental: as §1, §2

[8] = molecular target: T8, a-Dystroglycan peptide (no Tn); assay: glycopeptide microarray, antibody at 50 ug/mL
Experimental: as §1, §2

[9] = molecular target: T9, MUC5AC; assay: glycopeptide microarray, antibody at 50 ug/mL
Experimental: as §1, §2

[10] = molecular target: T10, EA2; assay: glycopeptide microarray, antibody at 50 ug/mL
Experimental: as §1, §2

[11] = molecular target: T11, EA2-R; assay: glycopeptide microarray, antibody at 50 ug/mL
Experimental: as §1, §2

[12] = molecular target: T12, a-Dystroglycan glycopeptide (four Tn); assay: glycopeptide microarray, antibody at 50 ug/mL
Experimental: as §1, §2

[13] = molecular target: T13, MUC1-1; assay: glycopeptide microarray, antibody at 50 ug/mL
Experimental: as §1, §2

[14] = molecular target: T14, MUC1-1R; assay: glycopeptide microarray, antibody at 50 ug/mL
Experimental: as §1, §2

[15] = molecular target: T15, MUC1-2; assay: glycopeptide microarray, antibody at 50 ug/mL
Experimental: as §1, §2

[16] = molecular target: T16, MUC1-2R; assay: glycopeptide microarray, antibody at 50 ug/mL
Experimental: as §1, §2

[17] = molecular target: T17, Peptide-4; assay: glycopeptide microarray, antibody at 50 ug/mL
Experimental: as §1, §2

[18] = molecular target: T18, Peptide-5; assay: glycopeptide microarray, antibody at 50 ug/mL
Experimental: as §1, §2

[19] = molecular target: T19, IgA-Pep02; assay: glycopeptide microarray, antibody at 50 ug/mL
Experimental: as §1, §2

[20] = molecular target: T20, IgA-Pep03; assay: glycopeptide microarray, antibody at 50 ug/mL
Experimental: as §1, §2

[21] = molecular target: T21, IgA-Pep07; assay: glycopeptide microarray, antibody at 50 ug/mL
Experimental: as §1, §2

[22] = molecular target: T22, IgA-Pep08; assay: glycopeptide microarray, antibody at 50 ug/mL
Experimental: as §1, §2

[23] = molecular target: T23, IgA-Pep10; assay: glycopeptide microarray, antibody at 50 ug/mL
Experimental: as §1, §2

[24] = molecular target: T24, IgA-Pep13; assay: glycopeptide microarray, antibody at 50 ug/mL
Experimental: as §1, §2

[25] = molecular target: T25, IgA-Pep16; assay: glycopeptide microarray, antibody at 50 ug/mL
Experimental: as §1, §2

[26] = molecular target: T26, IgA-Pep18; assay: glycopeptide microarray, antibody at 50 ug/mL
Experimental: as §1, §2

[27] = molecular target: T27, IgA-Pep05; assay: glycopeptide microarray, antibody at 50 ug/mL; spot IgA-Pep05
Experimental: as §1, §2

[28] = molecular target: T27, IgA-Pep05; assay: glycopeptide microarray, antibody at 50 ug/mL; spot IgA-Pep12
Experimental: as §1, §2

[29] = molecular target: T27, IgA-Pep05; assay: glycopeptide microarray, antibody at 50 ug/mL; spot IgA-Pep14
Experimental: as §1, §2

Row | Binder | RLU [1] [RLU] | RLU [3] [RLU] | RLU [5] [RLU] | RLU [6] [RLU] | RLU [7] [RLU] | RLU [8] [RLU] | RLU [9] [RLU] | RLU [10] [RLU] | RLU [11] [RLU] | RLU [12] [RLU] | RLU [13] [RLU] | RLU [14] [RLU] | RLU [16] [RLU] | RLU [17] [RLU] | RLU [18] [RLU] | RLU [19] [RLU] | RLU [21] [RLU] | RLU [22] [RLU] | RLU [23] [RLU] | RLU [26] [RLU] | also measured
1 | B1 | 45 | 9 | 8 | 11 | 10 | 37 | 23 | 11 | 15 | 24 | 11 | 7 | 4 | 7 | 10 | 26 | 20 | 22 | 19 | 16 | RLU [2]: 19 RLU; RLU [4]: 12 RLU; RLU [15]: 33 RLU; RLU [20]: 58 RLU; RLU [24]: 40 RLU; RLU [25]: 115 RLU; RLU [27]: 28 RLU; RLU [28]: 20 RLU; RLU [29]: 43 RLU
2 | B2 | 65 | 30 | 87 | 70 | 51 | 86 | 87 | 16 | 29 | 51 | 61 | 19 | 6 | 33 | 41 | 75 | 144 | 282 | 125 | 174 | RLU [27]: 149 RLU; RLU [28]: 457 RLU; RLU [29]: 112 RLU
3 | B3 | 55 | 22 | 27 | 54 | -39 | -4 | -14 | 18 | 45 | 28 | 14 | 7 | 0 | 31 | -6 | 35 | 30 | -6 | -127 | 22 | RLU [2]: 23 RLU; RLU [4]: 12 RLU; RLU [15]: 59 RLU; RLU [27]: 60 RLU; RLU [28]: 83 RLU; RLU [29]: 38 RLU
